1 sequence from publication PMC5630374 can be followed below.

The series has as its system T1, His-CalR (Vibrio parahaemolyticus RIMD2210633), ORF:1a4fc32f.
T1 sequence: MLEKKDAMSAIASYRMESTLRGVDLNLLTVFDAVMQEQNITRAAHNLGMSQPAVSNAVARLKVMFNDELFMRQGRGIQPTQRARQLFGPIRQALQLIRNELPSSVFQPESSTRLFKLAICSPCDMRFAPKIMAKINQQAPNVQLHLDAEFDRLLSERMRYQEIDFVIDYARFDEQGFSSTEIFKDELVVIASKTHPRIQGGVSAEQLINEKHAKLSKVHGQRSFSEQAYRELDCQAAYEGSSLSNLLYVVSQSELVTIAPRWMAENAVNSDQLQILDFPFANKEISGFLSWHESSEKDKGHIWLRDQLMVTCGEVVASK
Description: DNase I footprinting. The following applies: 10 mM Tris-HCl pH 7.5, 50 mM NaCl, 1 mM MgCl2, 0.5 mM EDTA, 0.5 mM DTT, 10 mg/ml salmon sperm DNA (so in the source), room temperature, 20 min (EMSA) or 30 min (ToxR …). On the technique in general: Mobility shift assays separate free from complexed probe on a gel.

For the sequence “CAGGAAACAGCTATGACCGGCTTATATTTATTCTACAGATGGACAGCAATAACGTTCCACGTACAACACGTAATTAACATAGTATTTAATTTTTAAGATAACACAATTCTAATTCTTCATCGCTTGTCGATATAAACCAAAATCCCACCATAATAGAATTTAATAACCGTTAATCTTTATATGCACCAGCACTCATTTGTAAGATTAGAAGCAAGGAGTCAATTCTGGGTTTCCGGCCAAAATATAATAACTAACAACCAAAATTGATAAACACTGGCCGTCGTTTTAC (double strand) [exsB promoter, footprint fragment]”, the binding result is listed as “binds”.
